We go through 1 substance from paper PMC4923858.

Test [1] concerns the target TβRII-GFP (UniProt P37173). In words: AFM single-molecule force spectroscopy; TGF-β1-modified AFM tips on live HeLa cells expressing TβRII-GFP; contact mode, room temperature, loading rate 1.0 x 10^4 pN/s; untreated cells.
The target in test [2] is TβRII-GFP (UniProt P37173). In words: AFM single-molecule force spectroscopy; TGF-β1-modified AFM tips on live HeLa cells expressing TβRII-GFP; contact mode, room temperature, loading rate 1.0 x 10^4 pN/s; cells treated with 50 μM metformin.
Sequence of TβRII-GFP (P37173 23-567): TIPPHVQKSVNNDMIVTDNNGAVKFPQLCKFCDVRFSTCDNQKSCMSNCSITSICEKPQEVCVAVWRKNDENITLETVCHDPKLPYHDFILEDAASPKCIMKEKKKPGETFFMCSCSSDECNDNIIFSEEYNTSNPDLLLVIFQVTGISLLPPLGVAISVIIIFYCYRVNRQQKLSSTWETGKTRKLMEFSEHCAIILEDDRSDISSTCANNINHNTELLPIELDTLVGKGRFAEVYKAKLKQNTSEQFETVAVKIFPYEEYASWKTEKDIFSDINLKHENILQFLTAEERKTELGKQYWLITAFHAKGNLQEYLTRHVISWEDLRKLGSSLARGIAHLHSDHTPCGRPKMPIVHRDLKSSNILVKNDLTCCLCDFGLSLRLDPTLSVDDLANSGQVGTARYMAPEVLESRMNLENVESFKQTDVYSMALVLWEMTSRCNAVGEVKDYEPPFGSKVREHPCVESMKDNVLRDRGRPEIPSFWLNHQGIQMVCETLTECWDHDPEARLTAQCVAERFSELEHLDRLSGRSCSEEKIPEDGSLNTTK

Consider Recombinant human TGF-β1 (ligand), for which, in the test with TβRII-GFP [1], the binding force (averaged histogram peak value) was found to be 49.5 pN and the binding probability is 21.7%. Moreover, in the test with TβRII-GFP [2], the binding force (averaged histogram peak value), with 50 μM metformin was determined as 49.3 pN and the binding probability, with 50 μM metformin turned out to be 9.9%.
